Residue numbers refer to the chain shown, from its start. Where two headings read alike, the source gives them in different places.
B1: ZV-67 (antibody, V domains shown)
VH: QVQLQQSGTGLARPGASVKLSCKASGYTFTSYGISWVTQRAGQGLEWIGVIYPRSGNTYYNEKFRGKATLTADKSSSSAYMELRGLTAEDSAVYFCARENYGSVYWGQGTTLTVSS
VL: DIVMTQSQKFMSTSVGDRVSITCKASQNVGTAVAWYQQKPGQSPKLLIYSASNRYTGVPDRFTGSGSGTDFTLTISNMQSEDLADYFCQQFSSYPYTFGGGTKLEIK
B2: ZV-54 (antibody, V domains shown)
VH: B1 VH with T9V, A16T, T28S, S31T, A41P, G56N, K63R, M81L
VL: B1 VL with S20T, N28S, Q37H, S76T, N77Y, S93N, Y96F
notes: also called ZWT; Rec54
B3: FcMut186 (antibody)
chain: ASTKGPSVFPLAPSSKSTSGGTAALGCLVKDYFPEPVTVSWNSGALTSGVHTFPAVLQSSGLYSLSSVVTVPSSSLGTQTYICNVNHKPSNTKVDKKVEPKSCDKTHTCPPCPAPELLGGPSVFLFPPKPKDTLMISRDPEVTCVVVDVSHEDPEVKFNWYVDGVEVHNAKTKPREEQYNSTYRVVSVLRVLHVDWLNGKEYKCKVSNKALPAPIEKTISKAKGQPREPQVYTLPPSRDELTKNQVSLTCLVKGFYPSDIVVEWESNGQPENNYKTTPPVLDSDGSFFLYSKLTVDKSRWQQGNVFSCSVMHEALHNHYTQKSLSLSPGK
B4: FcMut229 (antibody)
chain: B3 chain with H168D
B5: FcMut171 (antibody)
chain: B3 chain with N169D, V261A

Legend:
[1] = molecular target: T1, wild type ZIKV EDIII displayed on yeast (yeast; Zika virus); assay: yeast display of wild type ZIKV EDIII, flow cytometry (Alexa-647 MFI) over hybridoma supernatant dilutions; KD from the 50% maximal binding dilution and the Octet-quantified supernatant concentration
T1 construct: also called WT EDIII
T1 sequence (P32781 19-87): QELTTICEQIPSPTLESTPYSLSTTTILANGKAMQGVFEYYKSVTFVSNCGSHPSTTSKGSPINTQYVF

[2] = molecular target: T2, DENV EDIII protein (dengue virus, UniProt P17763 573-679); assay: ELISA of Example 7 on coated DENV EDIII, where p-1318 says 'minimal cross-reactivity with the DENV EDIII protein'
T2 construct: domain: EDIII; also called EDIII-DV1; dengue virus E protein domain III
T2 sequence (P17763 573-679 limits assumed): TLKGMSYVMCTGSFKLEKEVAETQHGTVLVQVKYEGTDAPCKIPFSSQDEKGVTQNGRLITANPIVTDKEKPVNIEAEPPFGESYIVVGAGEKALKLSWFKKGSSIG

[3] = molecular target: T1, wild type ZIKV EDIII displayed on yeast
[4] = molecular target: T3, recombinant FcRn protein (Homo sapiens (Human), UniProt P55899 24-297; P61769 21-119); assay: BLI (Octet): antibody on anti-CH1 biosensors, recombinant FcRn at pH 6.0; fold change against wild type Motavizumab
T3 construct: also called neonatal Fc receptor; copies: 1 + 1
T3 sequence (P55899 24-297 limits assumed, chain 1 of 2): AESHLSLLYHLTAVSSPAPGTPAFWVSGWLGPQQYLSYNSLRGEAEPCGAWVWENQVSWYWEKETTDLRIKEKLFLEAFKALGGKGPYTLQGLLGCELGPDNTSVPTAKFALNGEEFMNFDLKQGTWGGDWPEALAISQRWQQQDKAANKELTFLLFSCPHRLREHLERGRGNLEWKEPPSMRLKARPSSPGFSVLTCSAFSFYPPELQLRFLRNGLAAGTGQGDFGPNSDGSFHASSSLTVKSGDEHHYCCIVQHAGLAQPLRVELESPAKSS
T3 sequence (P61769 21-119 limits assumed, chain 2 of 2): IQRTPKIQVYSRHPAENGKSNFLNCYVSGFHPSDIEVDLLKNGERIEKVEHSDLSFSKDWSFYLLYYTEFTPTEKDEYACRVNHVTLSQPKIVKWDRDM

Binder | Kd [1] | binding result [2] | Kd [3] | Kd (fold increase) [4] | koff (fold decrease) [4] | kon (fold increase) [4]
B1 | 0.65 nM |  |  |  |  | 
B2 |  | no binding | 0.74 nM |  |  | 
B3 |  |  |  | 10.3 fold | 3.5 fold | 2.7 fold
B4 |  |  |  | 5.6 fold | 4.3 fold | 1.1 fold
B5 |  |  |  | 8.2 fold | 3.5 fold | 2 fold

— US20170298119A1 (VISTERRA, published 2017)
